Experiment [1] concerns the target PASD1(1) (…) presented by the HHD chimeric monochain MHC class I molecule (human; mouse).
Experiment [2] has the same target. The source holds these as a separate data set.
For experiment [3] the target is unchanged. This is another data set of the same source.
The target in experiment [4] is PASD1(2) (…) presented by the HHD chimeric monochain MHC class I molecule (human; mouse).

“splenocytes from HHD mice vaccinated with p.DOM-PASD1(1) (cells without a defined receptor)”: in experiment [1], the IFNγ-secreting spot-forming cells ex vivo (ELISPOT) (SFCs/10^6 cells) is 117. The specific lysis of KMS-12-HHD cells (51Cr release assay) in experiment [2] is under 40%.

Consider “splenocytes from HHD mice vaccinated with p.DOM-PASD1FL (cells without a defined receptor)”, for which the IFNγ-secreting spot-forming cells ex vivo (ELISPOT) (SFCs/10^6 splenocytes) in experiment [3] turned out to be 756. “splenocytes from HHD mice vaccinated with p.DOM-PASD1(2) (cells without a defined receptor)” yielded an IFNγ-secreting spot-forming cells ex vivo (ELISPOT) (SFCs/10^6 cells) in experiment [4] of 53.

(Values after US20120042399A1.)
